# In patent publication US20230398182A1 (ACCELERON PHARMA, published 2023):
# B1: Human TGFβ2 (ligand, UniProt P61812 303-414, looked up)
# chain: ALDAAYCFRNVQDNCCLRPLYIDFKRDLGWKWIHEPKGYNANFCAGACPYLWSSDTQHSRVLSLYNTINPEASASPCCVSQDLEPLTILYYIGKTPKIEQLSNMIVKSCKCS
# Target: T1, hTβRII (G4S)2-hFc (human)
# T1 construct: 70 lacks the C-terminal lysine; Expressed in CHO cells
# Test: SPR (Biacore), in vitro
# T1 sequence (chain, as listed by the source limits assumed): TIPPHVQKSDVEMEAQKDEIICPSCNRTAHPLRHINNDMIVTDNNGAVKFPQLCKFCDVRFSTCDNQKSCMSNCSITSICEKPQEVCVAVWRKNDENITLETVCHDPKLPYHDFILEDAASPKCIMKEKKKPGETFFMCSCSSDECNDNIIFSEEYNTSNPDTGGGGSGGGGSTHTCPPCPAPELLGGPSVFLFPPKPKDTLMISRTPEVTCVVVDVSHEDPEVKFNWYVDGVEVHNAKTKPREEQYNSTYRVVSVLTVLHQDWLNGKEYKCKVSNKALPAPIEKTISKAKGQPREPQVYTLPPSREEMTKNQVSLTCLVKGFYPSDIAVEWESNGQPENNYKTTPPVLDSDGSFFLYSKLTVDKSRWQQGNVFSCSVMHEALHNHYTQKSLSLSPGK
binder,measurement,value
B1,binding result,binds
